assay: yeast display, Sf9 membrane polyspecificity reagent, FACS + sequencing; frameworks hold sequencing errors
Method in brief: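 A nanobody's polyreactivity label depends on the gate it was sorted from. Yeast display cells were stained with 10% biotinylated, detergent-solubilized Sf9 membrane reagent for 1 hour at 4 °C, enriched on streptavidin microbeads and sorted by FACS. The low and high (top ~1%) gates were set on anti-HA fluorescence for expression and streptavidin fluorescence for reagent binding.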

Which “polyreactivity (PSR sort gate)” value does the source give for “QVQLVESGGGLVQAGGSLRLSCAPSGSIFAYYAMGWYRPAPGKERELVAAISKSGGRTYYADSVKGRFTISRDNAKNTVYLQMNSLKPEDTAVYYCAADGPGYTYDYWGQGTQVTVSS” here?
Its value is “high polyreactivity”.

Which “polyreactivity (PSR sort gate)” value does the source give for “QVQLVESGGGLVQAGGSLRISCAASGSTFDFYTMGWYRQAHGKEREMVASISWSGRTYYADSVKGRFTISRDNAKNTVYLQMTSLKPEDTAVYYCARRYVVNRDWGDDYWGQGTQVTVSS” here?
The value was “high polyreactivity”.

With “QVQLVESGGGLVQAGGSLRLSCAASGSTINQYPMGWYRQAPGKERDLVAAITRRGGSTYYADSVKGRCTISSDNAKNTVYLQLNSLKPEDTAVYYCAAAYPYTTVSYDYWGQGTQVTVSS” as the sequence, how does the “polyreactivity (PSR sort gate)” value read?
Its value is “high polyreactivity”.

With “QVQLVESGGGLVQAGGSLRLSCAASGSIFYYYAMGWYRQAPGKERELVAAINSGVSTYYADSVKGRFTISRDNAKNTVYLQMNSLKPEDTAVYYCDATGHNLYGSWFSWTPDTYDYWGQGTQVTVSS” as the sequence, how does the “polyreactivity (PSR sort gate)” value read?
Its value is “low polyreactivity”.

With “QVQLVESGGGLVQAGGSLRLSCAASGRTFTVYTMGWYRQAPGKERELVAVISTGGRTYYADSVKGRFTISRDNAKNTVYLQMNSLNPEDTAVYYCAAKFTREYYWGQGTQVTVSS” as the sequence, how does the “polyreactivity (PSR sort gate)” value read?
The value was “high polyreactivity”.

Which “polyreactivity (PSR sort gate)” value does the source give for “QVQLVESGGGLVQAGGSLRLSCAASGRIFGLYAMGWYSQAPGKERELVAAISRGGGSTYYSDSVMGRFTISRDNAKNTVYLQMKSLKPEVTAVYYCATGLGYFSRLDYWGQGTQVTVSS” here?
Its value is “low polyreactivity”.

Which “polyreactivity (PSR sort gate)” value does the source give for “QVQLVESGGGLVQAGGSLRLSCAASGFTLRKYAMGWYRQAPGKEREFVATSSSRAASTYYADSVKGRFTISRDNAQNPVYLQMNSLNQEDTAVYYCNKLSPYRGFYWGQGTQVTVSS” here?
Its value is “high polyreactivity”.

With “QVQLVESGGGLVQAGGSLRLSCAASGRIFPNAMGWYRQAPGKERELVAAISWSGVTTTYADSVKGRFTISRDNAKNTVYLQMNSLKPEDTAVYYCAARYWAYGYWGQGTQVTVSS” as the sequence, how does the “polyreactivity (PSR sort gate)” value read?
Its value is “high polyreactivity”.

With “QVQLVESGGGLVQAGGSLRLSCAASGSTFWYYAMGWYRQAPGKERELVADITYSGVSTYYADSVKGRFTISRDNAKNTVYLQMNSLKPEDTAVYYCNADWGSVNGYSGYYYWGQGTQVNVSS” as the sequence, how does the “polyreactivity (PSR sort gate)” value read?
The value was “low polyreactivity”.

With “QFQLVESGGGLVQAGGSLRLSCAASGRIFYKYVMGWYRQAPGKERELVAAINRSGGTTYYADSVKGRFTISRDNAKNTVYLQMNSLKPEDTAVYYCNATLPDYWPYYYYQGGDDYWGQGTQVTVSS” as the sequence, how does the “polyreactivity (PSR sort gate)” value read?
Its value is “low polyreactivity”.

With “QVQLVESGGGLVQAGGSLRLSCAASGSIFSINTMVWYRLAPGKERELVAAISRTGGSTYYADSVKGRFTNSRDNAKNTVYLQMNSLKPEDTAVYYCGKDRRRSTYEYWGQCTQVTVSS” as the sequence, how does the “polyreactivity (PSR sort gate)” value read?
Its value is “high polyreactivity”.

With “QVQLQESGGGLVQAGGSLRRSCAASGSIFSHWAMGWYRQTPGKERELVASITAGGNTNYADSVKGRFTISRDNAKNTVYLPMDSLKPEDTAVYYCAADGYYGAWDLEYYYWGQGTQVTVSS” as the sequence, how does the “polyreactivity (PSR sort gate)” value read?
The value was “low polyreactivity”.

For “QVQLVESGGALVQAGGSLRLSCAASGLIFYKYAMGWYRQAPGKERELVASISTGGGSTYYADSVKGRFTISRDNAKNTVYLQMNSLKPEDTAVYYCAARWWRRFRGSHSLYDYWGQGTLVTVSS”, which “polyreactivity (PSR sort gate)” value is on record?
Its value is “high polyreactivity”.

With “QVQLVESGGGLVQAGGSLRLSCAASGITFQGYTMGWYRQAPGKEWELVAAISSNGGRTYYADSVKGRFTISRDNAKNTVYLQMNSLKPEDTAVYYCAARSFWTYRSGGPSDYYYWGQGTQVTVSS” as the sequence, how does the “polyreactivity (PSR sort gate)” value read?
The value was “high polyreactivity”.

With “QVQLVESGGGLVQAGGSLRLSCASSGSTYYVYGMVWYRQAPGKERELVAAISWSGGDTYYADSVKGRFTISRDNAKKTVYFQMNPLKPEDTGVYYCAAVYNYPVVCEYDYWGQGTQVTVSS” as the sequence, how does the “polyreactivity (PSR sort gate)” value read?
Its value is “high polyreactivity”.

For “QVQLVESGGGLVQAGGSLRLSCAASGFTIWQNAMGWYRQAPGKERELVAGIRLSGGSTYADSVKGRFTISRDNAKNTVYLQMNSLKPEDTAVYYCAARIAGYYRYRYSYGYWGQGTQVTVSS”, which “polyreactivity (PSR sort gate)” value is on record?
Its value is “high polyreactivity”.

With “QVQLVESGGGIVQAGGSLRLSCAASGRTFEQNVMRWYRQAPGKERELVAAITTGGSTNYADSVKGRFTISRDNAKNTVYLQMNSLKPEDTAVYYCAADRYLGGDYDYWGQGTQVTVSS” as the sequence, how does the “polyreactivity (PSR sort gate)” value read?
The value was “low polyreactivity”.

Which “polyreactivity (PSR sort gate)” value does the source give for “QVQLQERGGGLVQAGASLRQSCAASGTIFTARFMGWYRQAPGKERELVATITDGGNTNDADSVKGRFTSSRDNAKITVYLQMNSLKPEYAAVYYCAAGEVDNDTLLYWGQGSQVTVSS” here?
The value was “low polyreactivity”.

Which “polyreactivity (PSR sort gate)” value does the source give for “QVQLVESGGGLVQAGGSLRLSCAASGFIFASYAMGWYRQAPGKERELVATITRNGGITYYADSVKGRFTISRDNAKNTVYLQMNSLKPEDTAVYYCAKRRSGKSNVSFYPYAYDYWGQGTQVTVSS” here?
The value was “low polyreactivity”.

Which “polyreactivity (PSR sort gate)” value does the source give for “QVQLVESGGGLVQAGGSLRLSCAASGRTFWYYTMGWYRQAPGKERELVAAISSGGTTNYADSVKGRFTISRDNAKNTVYLQMNSLKPEDTAVYYCAARYRSYAVRLRGYDYWGQGTQVTVSS” here?
The value was “high polyreactivity”.

With “QVHLVESAGGLVQAGGSLRLSCAASGLIFGTYAMGWYRPAPGKERELVATINSSGGSTYYADSVKGRFTISRDNAKNTVYLQINSLKPEDTAVYYCAADNWVNDGDYWGQGTQVTVLS” as the sequence, how does the “polyreactivity (PSR sort gate)” value read?
The value was “low polyreactivity”.

With “QVQLVESGGGLVQAGGSLRLSCAASGFTFYSYAMGWYRQAPGKERELVAAITQSGGSTYYADSVKGRFTISRDNAKNTVYLQMNSLKPEDTAVYYCAADIYNDYDYGYYYWGQGTQVTVSS” as the sequence, how does the “polyreactivity (PSR sort gate)” value read?
Its value is “low polyreactivity”.

For “QVQLVESGGGLVQAGGSLRLSCAASASTFYLYAMGWYRQAPGKERELVAAISRGGTTYYADSVKGRFTISRDNEKNSVYLQMNSLKPEDTAVYYCNKLRRYSEYNADYGDYWGQGTQVTVSS”, which “polyreactivity (PSR sort gate)” value is on record?
The value was “high polyreactivity”.

With “QVQLVESGGGLVHAGGSLRLSSAASGRISLSNAMRWYTQAPGKETEFVAAITKRSDRTYYADSVKGRFTNSRDNAKNPVYLQMNSLKPEETAVYYCGAKPLFGTRDDYWGQGTQVTVSS” as the sequence, how does the “polyreactivity (PSR sort gate)” value read?
The value was “low polyreactivity”.

With “QVQLVETGGGLVQAGGSLRLSCAASGFNLPIYAMRCYRQPPGKEREFVAAITWTGGSTYYADSVKGRFTISRDNAKNTVYLQMNSLKPEDTAVYYCNAEGPSYYYIIYDYWGQGTQVTVSS” as the sequence, how does the “polyreactivity (PSR sort gate)” value read?
The value was “high polyreactivity”.

For “QVQLVESGGGLVQAGGSLRLTCAASGRIFPYMGWYRQAPGKERELVAAISSRGGNTYYADSVKGRFTISRDNAKNTVYLQMNSLKPEDTAVYYCNKVKYTWYDWGQGTQVTVSS”, which “polyreactivity (PSR sort gate)” value is on record?
The value was “high polyreactivity”.

Which “polyreactivity (PSR sort gate)” value does the source give for “QVQLVESGGGLVQAGGSLRLSCAASGRTFGYNTMGWYRQAPGKERELVAVITQGVDITYYADSVKGRFTISRDNAKNTVYLQMNSLKPEDTAVYYCNTAGQDAEYDYWGQGTQVTVSS” here?
The value was “low polyreactivity”.

With “QVQLVESRGGLVQAGGSLRLSCASSGSTFVPNAMGWYRQAPGNERELDAAITFSGGTTYYADSVKGRFTISRDNAKNTVYFQMNSLKPEDTAVYDCAADYFSNLWWSGHAWRYYYWGQGTQVTVSS” as the sequence, how does the “polyreactivity (PSR sort gate)” value read?
Its value is “low polyreactivity”.

With “QVQLVESGGGLVQEGGSLRLSCAASGIIFPVYDMGWYRQAPGKERELVASITDSGGSTSYADSVKGRFTLSRDNAKNTVYLQMNSLKPEDTAVYYCAVTDSDTNYYGYLSYDYWGQGTQVTVSS” as the sequence, how does the “polyreactivity (PSR sort gate)” value read?
The value was “low polyreactivity”.

With “QVQLVESGGGLVQAGGSLRLSSAASGNTFWHYAMGWYRQAPGKERELVAAITRSTGSTYYADSVKGRFTISRDNAKYSVYLQMNSLKPEDTAVYYCAADFYRHYFRVDSWGQGTQVTVSS” as the sequence, how does the “polyreactivity (PSR sort gate)” value read?
Its value is “low polyreactivity”.

With “QVQLVESGGGLVQAGGSLRLICAASGSIFYANAMGWYRQAPGKEREFVAANSSSGGGTSYADSVKGRFTISRDNAKNTVYLQMNSLKPEDTAVYYCAARVTYGGIPARQIYDYWGQGTQVTVSS” as the sequence, how does the “polyreactivity (PSR sort gate)” value read?
Its value is “low polyreactivity”.

For “QVHLVESGGGLVQAGGSLRLSCAASGRNFGYNAMGWYRQAPRKEREFVASISSSGGLTYYSDSVKGRFTISRDNAKNTVYLQMNSLKPEDSAFYDCARQGYYLYSKYDYWGQGTQVTVSS”, which “polyreactivity (PSR sort gate)” value is on record?
Its value is “high polyreactivity”.

For “QVQLVVSGGGLVQAGGSLRLSCAASGSTFSRNAMGWYRQAPGKERELVASISWSGARTYYADSVKRRFTISRDNAKNTVYLQMNSLKPEDTAVYYCAKFRSYRGPYNFWGQGTQVTVSS”, which “polyreactivity (PSR sort gate)” value is on record?
The value was “high polyreactivity”.

For “QVQLVESGGGLVQAGGSLRLSCAASGNTFVANDMGWYRQAPGKERELVAVISGSGGDTYYADSVKGRFTISRDNAKNTVYLQMNSLKPEDTAVYYFAADWYGRETDRSDSDYEYWGQGTKVTVSS”, which “polyreactivity (PSR sort gate)” value is on record?
The value was “low polyreactivity”.

For “QVQLVESGGGLVQAGGSLRLSCAASGSTSVGNAMGWYRQAPGKERELVAAISRIGGTTYYADSVKGRFTISRDNAKNTVYLQMNSLKPEDTAVYYCNVLKRYWSGRVDYWGQGTQVTVSS”, which “polyreactivity (PSR sort gate)” value is on record?
The value was “high polyreactivity”.

Which “polyreactivity (PSR sort gate)” value does the source give for “QVQLEESGGGLVQAGGSLRLSCAASGFTFTDYAMGWYRQAPGKERELVAVITYDSTYYADSVKGRFTISRDNAKNTVYLQMNSLKPEDTAVYYCAADSYDWGDFDYWGQGTQVTVSS” here?
Its value is “low polyreactivity”.

Which “polyreactivity (PSR sort gate)” value does the source give for “QVQLVESGGGLVQAGGSLRLSCAASGRTFQRYTMGWYRQAPGKERELVASISRSGGSTYYADSVKGRFTISRDNAKNTVYLQMNSLKPEDTAVYYCATRSLFWNRNHYRVSSPVLFDYWGQGTQVTVSS” here?
The value was “high polyreactivity”.

With “QVQLVESGGGLVQAGGSLRVSCAASGSFFVPYAMGWYRHAPGKERELVAAISRGGDTNYADSEKGRFTISRDNAKNTVYLQRNSLKPEDTAVYYCNRARHHYSRWHGGYYYWGQGTQETVSS” as the sequence, how does the “polyreactivity (PSR sort gate)” value read?
The value was “low polyreactivity”.

For “QVQLQESGGGLVQASGSLRLSCASSGNIFPDYVMAWYRLAPGKEREFVANITGGSTTNYADSVKGRFTISRDNAKNTVDLQMNSLTPEDTAVYYCAVNFGTVVLYLYWGQGTQVSVSS”, which “polyreactivity (PSR sort gate)” value is on record?
Its value is “high polyreactivity”.

Which “polyreactivity (PSR sort gate)” value does the source give for “QFQLVESGGGLVQAGCSLRLSCAASGLTVGSNTMGWDRQAPGKERELVAAITSNGGSTYYADSVKGRFTISRDNAKNTVYLQMNSLIPEDTAVYYCAADDRGLISRRGYFYLSYDYWGQGTQVTVSA” here?
The value was “low polyreactivity”.

With “QVQLVESGGRLVHAGGSLRISCAASGSILTRNAMGWYRPAPGKERELVAASTKRGGTTYYADSVKGRFTISRDNAKNTVYLQMNSLKQEDNAVYYCAARNGGRFSFEFNYWGQGTQVTVSS” as the sequence, how does the “polyreactivity (PSR sort gate)” value read?
Its value is “high polyreactivity”.

Which “polyreactivity (PSR sort gate)” value does the source give for “QVQLVESGGGLVQAGGSLRLSCAASGSIFGGYAMGWYRQAPGKERELVAAISSGGSTYYADSVKGRFTISRDNAKNTVYLQMNSLKPEDTAVYYCATSTFAYRRNSYYYTRPRFGYWGQGTQVTVSS” here?
Its value is “high polyreactivity”.

With “QVQLVESGGGLVQAGGSLRLSCAATGRTFGSNAMGWYRQAPGKERELVAAISLRGGRTYYADSVKGRFTISRDTAKNTVYLQMNSLKPEDTAVYYCNAVHYLYGARSRLTYDYWGQGTQVTVSS” as the sequence, how does the “polyreactivity (PSR sort gate)” value read?
The value was “high polyreactivity”.

— the nanobody polyreactivity screen of Harvey et al. (2022)
